From patent publication US20040072742A1 (Takeda / Millennium, published 2004)

T1: MD36NT (MD36 from the N terminus to the proline-rich domain, SEQ ID NO:33) fused to yeast GAL4 transcription … (yeast; human, UniProt Q9Y613 1-640, limits assumed)
T1 construct: also called pACT-MD36NT
T1 sequence: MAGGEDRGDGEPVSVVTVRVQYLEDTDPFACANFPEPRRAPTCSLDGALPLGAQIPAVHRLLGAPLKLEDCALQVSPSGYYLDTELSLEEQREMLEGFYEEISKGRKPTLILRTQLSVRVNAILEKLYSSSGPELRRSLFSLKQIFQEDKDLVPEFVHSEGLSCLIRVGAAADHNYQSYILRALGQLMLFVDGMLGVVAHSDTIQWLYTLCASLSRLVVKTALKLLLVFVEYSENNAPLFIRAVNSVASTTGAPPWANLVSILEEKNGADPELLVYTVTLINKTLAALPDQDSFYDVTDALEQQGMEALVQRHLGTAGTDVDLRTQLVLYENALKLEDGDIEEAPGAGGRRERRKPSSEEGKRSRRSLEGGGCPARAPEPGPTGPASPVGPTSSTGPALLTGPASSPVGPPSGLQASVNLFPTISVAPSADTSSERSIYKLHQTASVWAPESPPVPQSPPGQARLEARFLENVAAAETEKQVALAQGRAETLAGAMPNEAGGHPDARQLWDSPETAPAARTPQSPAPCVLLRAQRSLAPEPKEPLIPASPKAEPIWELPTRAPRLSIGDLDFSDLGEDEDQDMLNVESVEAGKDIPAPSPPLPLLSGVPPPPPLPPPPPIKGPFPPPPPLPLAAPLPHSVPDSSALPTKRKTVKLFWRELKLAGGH

T2: full-length MD36 (SEQ ID NO:1) fused to yeast GAL4 transcription activated domain protein (yeast; human, UniProt Q9Y613 1-1164, limits assumed)
T2 construct: also called pACT-MD36; IRAP-BP protein
T2 sequence: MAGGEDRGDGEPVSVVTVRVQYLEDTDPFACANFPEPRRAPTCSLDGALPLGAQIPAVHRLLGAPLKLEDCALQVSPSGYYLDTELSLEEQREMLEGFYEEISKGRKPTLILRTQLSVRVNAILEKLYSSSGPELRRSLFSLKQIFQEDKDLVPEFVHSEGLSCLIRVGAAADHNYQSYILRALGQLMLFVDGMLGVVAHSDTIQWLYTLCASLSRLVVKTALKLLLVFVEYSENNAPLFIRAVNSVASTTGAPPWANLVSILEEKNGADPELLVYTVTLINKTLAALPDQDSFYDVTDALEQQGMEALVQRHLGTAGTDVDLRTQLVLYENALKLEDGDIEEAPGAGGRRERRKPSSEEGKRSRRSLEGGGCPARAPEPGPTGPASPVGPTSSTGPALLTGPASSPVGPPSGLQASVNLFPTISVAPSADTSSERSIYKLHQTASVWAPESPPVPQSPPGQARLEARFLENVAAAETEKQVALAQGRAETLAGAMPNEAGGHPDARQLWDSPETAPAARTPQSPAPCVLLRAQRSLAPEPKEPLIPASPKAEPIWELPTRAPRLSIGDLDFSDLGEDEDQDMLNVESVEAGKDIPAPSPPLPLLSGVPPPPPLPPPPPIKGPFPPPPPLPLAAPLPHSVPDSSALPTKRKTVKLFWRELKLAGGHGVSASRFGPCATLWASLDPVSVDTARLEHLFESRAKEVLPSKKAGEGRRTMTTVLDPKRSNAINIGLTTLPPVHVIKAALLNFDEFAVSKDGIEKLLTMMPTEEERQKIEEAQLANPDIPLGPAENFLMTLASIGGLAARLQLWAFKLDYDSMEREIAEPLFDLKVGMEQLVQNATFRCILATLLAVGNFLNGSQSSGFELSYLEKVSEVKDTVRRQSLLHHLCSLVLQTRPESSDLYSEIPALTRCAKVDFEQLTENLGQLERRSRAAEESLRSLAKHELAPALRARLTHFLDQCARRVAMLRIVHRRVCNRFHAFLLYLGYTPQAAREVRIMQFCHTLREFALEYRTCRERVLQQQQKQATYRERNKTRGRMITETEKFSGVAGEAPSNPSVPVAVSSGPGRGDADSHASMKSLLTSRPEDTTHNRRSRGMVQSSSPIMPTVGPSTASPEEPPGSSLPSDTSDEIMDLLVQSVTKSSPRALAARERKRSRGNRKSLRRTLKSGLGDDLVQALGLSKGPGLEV

B1: profilin IIL fused to yeast GAL4-DNA-binding domain protein (other)
chain: MKLLSSIEQACDICRLKKLKCSKEKPKCAKCLKNNWECRYSPKTKRSPLTRAHLTEVESRLERLEQLFLLIFPREDLDMILKMDSLQDIKALLTGLFVQDNVNKDAVTDRLASVETDMPLTLRQHRISATSSSEESSNKGQRQLTVSMAGWQSYVDNLMCDGCCQEAAIVGYCDAKYVWAATAGGVFQSITPIEIDMIVGKDREGFFTNGLTLGAKKCSVIRDSLYVDGDCTMDIRTKSQGGEPTYNVAVGRAGRVLVFVMGKEGVHGGGLNKKAYSMAKYLRDSGF
notes: Profilin IIL was cloned from human skeletal muscle-derived cDNA; also called PFN IIL
B2: profilin II fused to yeast GAL4-DNA-binding domain protein (other)
chain: MKLLSSIEQACDICRLKKLKCSKEKPKCAKCLKNNWECRYSPKTKRSPLTRAHLTEVESRLERLEQLFLLIFPREDLDMILKMDSLQDIKALLTGLFVQDNVNKDAVTDRLASVETDMPLTLRQHRISATSSSEESSNKGQRQLTVSAGWQSYVDNLMCDGCCQEAAIVGYCDAKYVWAATAGGVFQSITPIEIDMIVGKDREGFFTNGLTLGAKKCSVIRDSLYVDGDCTMDIRTKSQGGEPTYNVAVGRAGRALVIVMGKEGVHGGTLNKKAYELALYLRRSDV
notes: also called PFN II; pG-PFNII

Experiments:
[1] = target: T1, MD36NT (MD36 from the N terminus to the …); assay: yeast two-hybrid, HIS3 reporter growth
Description: (§1) The protein-protein interaction between MD36 and the profilin family was detected by the yeast two-hybrid system. Based on pGBT9 (CLONTECH), expression plasmids were constructed to express the coding regions of profiling I (Evangelista et al., Science, 276, 118-122, 1997; Imamura et al., EMBO J., 16, 2745-2755, 1997; Tanaka, Biochem. Biophys. Res. Commun., 267, 479-481, 2000), profilin II (Schluter et al., Biohim. Biophys. Acta, 1359, 97-109, 1997), and profiling IIL in the form fused to yeast GAL4-DNA-binding domain protein under control of yeast ADH1 promoter. These plasmids were named pG-PFNI, pG-PFNII and pG-PFNIII, respectively (yeast selection marker was TRP1). On the other hand, expression plasmids that express the full-length sequence (SEQ ID NO:1) of MD36, which is IRAP-BP protein, or the coding region from this N-terminus to the sequence (SEQ ID NO:33) including the proline-rich domain in the form fused to yeast […] activated domain protein under control of yeast ADH1 promoter was constructed based on pACT2 (CLONTECH), and named pACT-MD36 and pACT-MD36NT, respectively (yeast selection marker was LEU2). pG-PFNI, pG-PFNII, pG-PFNIII or, pGBT9 for control was co-transfected to yeast Saccharomyces cerevisiae Y190 together with pACT-MD36 or pACT-MD36NT, and yeast strains bearing plasmids from the two were selected on SD medium free of tryptophan and leucine. […]

[2] = target: T2, full-length MD36 (SEQ ID NO:1) fused to …; assay: yeast two-hybrid, HIS3 reporter growth
Description: as §1

[3] = target: T1, MD36NT (MD36 from the N terminus to the …); assay: yeast two-hybrid, HIS3 reporter growth on histidine-free medium
Description: as §1

[4] = target: T2, full-length MD36 (SEQ ID NO:1) fused to …; assay: as above
Description: as §1

Binder | binding result [1] | binding result [2] | binding result [3] | binding result [4]
B1 | binds | binds | – | –
B2 | – | – | no binding | no binding
